T1: human BCMA (B cell maturation antigen) (human, UniProt Q02223 1-184)
T1 chain: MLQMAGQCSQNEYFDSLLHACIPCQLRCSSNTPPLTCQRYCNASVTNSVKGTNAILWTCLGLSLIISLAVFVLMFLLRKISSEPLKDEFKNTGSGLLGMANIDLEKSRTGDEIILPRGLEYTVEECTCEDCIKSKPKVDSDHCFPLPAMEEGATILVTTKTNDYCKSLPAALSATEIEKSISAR


Assays:
[1] = target: T1, human BCMA (B cell maturation antigen); experiment: cell-based or functional assay
[2] = target: T1, human BCMA (B cell maturation antigen); experiment: cell-based or functional assay

Binder | % Killing at 1 nM (ADCC of JJN-3 cells, PBMC effectors, LDH release) [1] [%] | % Killing at 1 nM (ADCC of U266 cells, PBMC effectors, LDH release) [2] [%]
chC12A3.2 (antibody, human IgG1, kappa, V domains shown) VH: QIQLVQSGPELKKPGETVKISCKASGYTFRHYSMNWVKQAPGKGLKWMGRINTESGVPIYADDFKGRFAFSVETSASTAYLVINNLKDEDTASYFCSNDYLYSLDFWGQGTTLTVSS VL: DIVLTQSPPSLAMSLGKRATISCRASESVTILGSHLIYWYQQKPGQPPTLLIQLASNVQTGVPARFSGSGSRTDFTLTIDPVEEDDVAVYYCLQSRTIPRTFGGGTKLEIKR | 5 | 32
chC13F12.1 (antibody, human IgG1, kappa, V domains shown) VH: QIQLVQSGPELKKPGETVKISCKASGYTFTHYSMNWVKQAPGKGLKWMGRINTETGEPLYADDFKGRFAFSLETSASTAYLVINNLKNEDTATFFCSNDYLYSCDYWGQGTTLTVSS VL: DIVLTQSPPSLAMSLGKRATISCRASESVTILGSHLIYWYQQKPGQPPTLLIQLASNVQTGVPARFSGSGSRTDFTLTIDPVEEDDVAVYYCLQSRTIPRTFGGGTKLEIKR | 3 | 20
chA7D12.2 (antibody, human IgG1, kappa, V domains shown) VH: QIQLVQSGPDLKKPGETVKLSCKASGYTFTNFGMNWVKQAPGKGFKWMAWINTYTGESYFADDFKGRFAFSVETSATTAYLQINNLKTEDTATYFCARGEIYYGYDGGFAYWGQGTLVTVSA VL: DVVMTQSHRFMSTSVGDRVSITCRASQDVNTAVSWYQQKPGQSPKLLIFSASYRYTGVPDRFTGSGSGADFTLTISSVQAEDLAVYYCQQHYSTPWTFGGGTKLDIKR | 20 | 10
chC11D5.3 (antibody, human IgG1, kappa, V domains shown) VH: QIQLVQSGPELKKPGETVKISCKASGYTFTDYSINWVKRAPGKGLKWMGWINTETREPAYAYDFRGRFAFSLETSASTAYLQINNLKYEDTATYFCALDYSYAMDYWGQGTTLTVSS VL: DIVLTQSPPSLAMSLGKRATISCRASESVTILGSHLIHWYQQKPGQPPTLLIQLASNVQTGVPARFSGSGSRTDFTLTIDPVEEDDVAVYYCLQSRTIPRTFGGGTKLEIKR |  | 18

Source: patent publication US20120082661A1 (Biogen, published 2012)
